Blank lines part the entries; values can stand above or below the molecule they belong to.
Key:
[1] = biological target: Latent TGFβ Binding Protein-1, short form (LTBP1S), full length; experiment: SEC-MALS; Superdex 200 or Superose 6; 0.5 ml at ~0.5 mg/ml; 10 mM Tris, 150 mM NaCl, 2 mM CaCl2, pH 7.4; self-association; NT2 monomer also stored overnight at 4 °C in 2 mM calcium and the dimer fraction rerun
[2] = biological target: Latent TGFβ Binding Protein-1, short form (LTBP1S), full length; experiment: negative stain EM; LTBP1 oligomers imaged by negative stain EM; lengths measured with ImageJ (n = 100 from 32 images)
[3] = biological target: the molecule itself; experiment: SEC-MALS; Superdex 200 or Superose 6; 0.5 ml at ~0.5 mg/ml; 10 mM Tris, 150 mM NaCl, 2 mM CaCl2, pH 7.4; self-association; NT2 monomer also stored overnight at 4 °C in 2 mM calcium and the dimer fraction rerun
[4] = biological target: the molecule itself; experiment: AUC; ~0.5 mg/ml; 10 mM Tris, 150 mM NaCl, 2 mM CaCl2, pH 7.4; self-association; NT1 also after 12 h pre-incubation with ~10x molar excess of low molecular weight heparin

stoichiometry N [1]: 4 to 5
stoichiometry N [2]: 4 to 5
Molecule: Latent TGFβ Binding Protein-1, short form (LTBP1S), full length (natural protein)

B1: LTBP1 N-terminal construct NT2 (residues 21–630) (domain or fragment, UniProt Q14766-2 21-630, looked up)
chain: NHTGRIKVVFTPSICKVTCTKGSCQNSCEKGNTTTLISENGHAADTLTATNFRVVICHLPCMNGGQCSSRDKCQCPPNFTGKLCQIPVHGASVPKLYQHSQQPGKALGTHVIHSTHTLPLTVTSQQGVKVKFPPNIVNIHVKHPPEASVQIHQVSRIDGPTGQKTKEAQPGQSQVSYQGLPVQKTQTIHSTYSHQQVIPHVYPVAAKTQLGRCFQETIGSQCGKALPGLSKQEDCCGTVGTSWGFNKCQKCPKKPSYHGYNQMMECLPGYKRVNNTFCQDINECQLQGVCPNGECLNTMGSYRCTCKIGFGPDPTFSSCVPDPPVISEEKGPCYRLVSSGRQCMHPLSVHLTKQLCCCSVGKAWGPHCEKCPLPGTAAFKEICPGGMGYTVSGVHRRRPIHHHVGKGPVFVKPKNTQPVAKSTHPPPLPAKEEPVEALTFSREHGPGVAEPEVATAPPEKEIPSLDQEKTKLEPGQPQLSPGISTIHLHPQFPVVIEKTSPPVPVEVAPEASTSSASQVIAPTQVTEINECTVNPDICGAGHCINLPVRYTCICYEGYRFSEQQRKCVDIDECTQVQHLCSQGRCENTEGSFLCICPAGFMASEEGTNCI
notes: LTBP1S residues 21-630; also called NT2 region
stoichiometry N [3]: 2

B2: LTBP1 N-terminal construct NT1 (residues 21–488) (domain or fragment, UniProt Q14766-2 21-488, looked up)
chain: NHTGRIKVVFTPSICKVTCTKGSCQNSCEKGNTTTLISENGHAADTLTATNFRVVICHLPCMNGGQCSSRDKCQCPPNFTGKLCQIPVHGASVPKLYQHSQQPGKALGTHVIHSTHTLPLTVTSQQGVKVKFPPNIVNIHVKHPPEASVQIHQVSRIDGPTGQKTKEAQPGQSQVSYQGLPVQKTQTIHSTYSHQQVIPHVYPVAAKTQLGRCFQETIGSQCGKALPGLSKQEDCCGTVGTSWGFNKCQKCPKKPSYHGYNQMMECLPGYKRVNNTFCQDINECQLQGVCPNGECLNTMGSYRCTCKIGFGPDPTFSSCVPDPPVISEEKGPCYRLVSSGRQCMHPLSVHLTKQLCCCSVGKAWGPHCEKCPLPGTAAFKEICPGGMGYTVSGVHRRRPIHHHVGKGPVFVKPKNTQPVAKSTHPPPLPAKEEPVEALTFSREHGPGVAEPEVATAPPEKEIPSLDQE
notes: LTBP1S residues 21-488; also called NT1 region
stoichiometry N [4]: 2

— publication PMC5039643, “Independent multimerization of Latent TGFβ Binding Protein-1 stabilized by cross-linking and enhanced by heparan sulfate” (Scientific Reports, 2016)
